Values quoted from earlier work in publication PMC5477003.

Target: integrin αIIbβ3 (Homo sapiens) (UniProt P08514)

CD40L (from UniProt P29965)
Kd: 30 nM
